In US20250051463A1 (AstraZeneca / MedImmune, published 2025):

Experiments:
human IL-5Rα = target: T1, human IL-5Rα (human, UniProt Q01344 21-342, limits assumed); test: biolayer interferometry, HT12-GL on the sensor, Sample ID: hIL5Ra-his in solution
T1 construct: Soluble analyte in the Octet assay; construct not described; also called hIL5-Rα; human IL-5Ra sample
T1 sequence (looked up): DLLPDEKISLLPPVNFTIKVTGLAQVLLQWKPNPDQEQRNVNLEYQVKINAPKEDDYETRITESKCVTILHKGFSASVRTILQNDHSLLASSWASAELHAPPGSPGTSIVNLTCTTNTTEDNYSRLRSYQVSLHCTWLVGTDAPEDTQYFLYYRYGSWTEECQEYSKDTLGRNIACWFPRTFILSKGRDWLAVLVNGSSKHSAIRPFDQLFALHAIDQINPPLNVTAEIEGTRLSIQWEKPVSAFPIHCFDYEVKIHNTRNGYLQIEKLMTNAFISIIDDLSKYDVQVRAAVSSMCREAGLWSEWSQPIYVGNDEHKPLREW
Method: (§1) Biolayer interferometry binding experiments were performed using an Octet RED384 instrument, with all measurements made at 30° C. AHC biosensor probes were soaked in kinetics buffer (PBS pH 7.2+0.02% Tween-20, 0.1% BSA, 0.05% sodium azide) for 10 minutes, followed by baseline signal measurement in kinetics buffer for 60 seconds. […] For binding to hIL3-Rα, the antibody-loaded biosensor tips were dipped in binding buffer for 60 sec (baseline), followed by immersion in a solution containing dilutions of hIL3-Rα (10-0.16 μg/mL) for 300 sec (association), and subsequent immersion in kinetics buffer for 400 sec (dissociation). For binding to hIL5-Rα and GM-CSFRa, all steps were the same except the concentration of antigen was increased (50-1.56 μg/mL) and the dissociation step was decreased to 300 sec. The signal from a buffer only reference sample was subtracted, and all curves were fit with a 1:1 binding model to determine KD values.

[1] = target: T2, human CD123 (IL3Rα) on cells (human, UniProt P26951 19-378); test: flow cytometry on THP-1 CD123 (no dox) cells, Geo MFI
T2 construct: whole, on cells; also called human IL3Rα expressed on 293 cells; AD293hIL3Rα
Method: THP-1 cells were transfected with an IL3Rα expression construct under the control of a doxycycline inducible promoter. THP-1 cells were maintained in DMEM containing 10% heat-inactivated fetal bovine serum (FBS) and were cultured in a humidified atmosphere of 5% CO₂ and at a temperature of 37° C. […] (Dox) inducible cells were stimulated with 1 μg/ml dox overnight before use. […] On the day of plating, cells were spun down at 1500 rpm for 3 minutes, counted, and resuspended to a final concentration of 1×10⁶ cells/ml. Two hundred μl of cells were plated in wells of 96 well microtiter plates. The plates were spun down at 1500 rpm for 3 minutes and flicked to remove media. One hundred μl of FACS buffer (PBS+2% FBS) was added to each well. […] The antibody concentration started at 12 μg/ml followed by six 1:3 dilutions (no antibody control was also run). The plates were incubated at 4° C. for 30 minutes. Following incubation, the plates were washed 3 times by spinning down at 1500 rpm for 3 minutes, flicked and 100 μl of FACs buffer was added. Alexa 647 secondary antibody (goat anti-human IgG (H+L)) was added at 1:1000 dilution in 100 μl followed by 30 minute 4° C. incubation. The plates were washed as above. […] Cells were analyzed on a BD Bioscience LSRII by collecting 10,000 cells. Flow data was analyzed in FlowJo software.
Target sequence in this assay (P26951 19-378): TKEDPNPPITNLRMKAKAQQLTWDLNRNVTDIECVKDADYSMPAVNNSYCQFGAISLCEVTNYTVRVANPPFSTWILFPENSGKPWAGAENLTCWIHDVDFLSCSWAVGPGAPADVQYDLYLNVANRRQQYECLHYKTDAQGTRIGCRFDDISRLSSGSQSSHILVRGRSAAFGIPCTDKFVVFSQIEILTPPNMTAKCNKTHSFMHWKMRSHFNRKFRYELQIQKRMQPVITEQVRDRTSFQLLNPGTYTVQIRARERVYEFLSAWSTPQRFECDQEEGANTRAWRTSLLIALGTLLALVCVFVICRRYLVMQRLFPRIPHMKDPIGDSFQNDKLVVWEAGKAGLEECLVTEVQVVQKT

GM-CSFRα = target: T3, GM-CSFRα (Homo sapiens (Human), UniProt P15509 23-320); test: biolayer interferometry, HT12-GL on the sensor, GM-CSFRa-His in solution
T3 construct: also called GM-CSFRa; GM-CSFRa sample; not shown: His tag
T3 sequence: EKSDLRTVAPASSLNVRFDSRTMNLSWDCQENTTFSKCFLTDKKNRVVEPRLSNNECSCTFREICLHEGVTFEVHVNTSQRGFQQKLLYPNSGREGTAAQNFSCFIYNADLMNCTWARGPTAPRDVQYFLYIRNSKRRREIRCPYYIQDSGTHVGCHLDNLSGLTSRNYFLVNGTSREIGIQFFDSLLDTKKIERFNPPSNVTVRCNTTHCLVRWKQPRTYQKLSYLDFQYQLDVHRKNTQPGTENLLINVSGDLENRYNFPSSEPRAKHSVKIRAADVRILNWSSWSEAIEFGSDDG
Method: as §1

[2] = target: T2, human CD123 (IL3Rα) on cells; test: flow cytometry with Alexa 647 labelled antibody on Ad293 cells expressing human IL3Ra, geometric mean
Method: AD293 cells were maintained in DMEM (Dulbecco's Modified Eagle Medium) containing 10% heat-inactivated fetal bovine serum (FBS) and were cultured in a humidified atmosphere of 5% CO2 and at a temperature of 37° C. On the day of plating, cells were spun down at 1500 rpm for 3 minutes, counted, and resuspended to a final concentration of 0.3×10⁶ cells/ml. Two hundred μl of cells were plated to wells of 96 well microtiter plate. Plates were spun down at 1500 rpm for 3 minutes and flicked to remove media. One hundred μl of FACs buffer (PBS [Phosphate Buffer Saline]+2% FBS) was added to the wells. Plates were then spun again as above followed by addition of primary antibody in 100 μl of FACS buffer. […] Antibody concentration started at 12 μg/ml followed by six 1:3 dilutions (no antibody control was also run). Plates were incubated at 4° C. for 30 minutes. Following incubation plates were washed 3 times by spinning down at 1500 rpm for 3 minutes, flicked and 100 μl of FACS buffer were added. Following a final wash, 100 μl of FACS buffer containing live/dead DAPI (diamidino-2-phenylindole) stain was added to the plates. […] Flow data was analyzed in FlowJo software.

binding result (human IL-5Rα): no binding | EC50 (read off the curve) [1]: ~0.2 µg/mL | binding result (GM-CSFRα): no binding | EC50 (read off the curve) [2]: ~1 µg/mL
B1: HT12-GL antibody (antibody, human IgG1, kappa, V domains shown)
VH: EVQLLESGGGLVQPGGSLRLSCAASGFTFNIYAMTWVRQAPGKGLEWVSGISAGGDSTYYADSVKGRFTISRDNSKNTLYLQMNSLRAEDTAVYYCAKDRGYYYGMDVWGQGTTVTVSS
VL: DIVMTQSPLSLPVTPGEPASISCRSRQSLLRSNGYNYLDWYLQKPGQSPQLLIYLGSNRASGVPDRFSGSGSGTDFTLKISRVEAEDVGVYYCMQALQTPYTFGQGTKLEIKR
notes: elsewhere unlabeled with a secondary antibody; also called HT12-GL mAb; CD123 mAb
